Test results from publication PMC5342555, “ATAD2 is an epigenetic reader of newly synthesized histone marks during DNA replication” (Oncotarget, 2016).
One block for each molecule: values may come before it.

How the values were obtained:
MCF7 cells [1] = test: EdU incorporation (DNA replication) by flow cytometry; format: cell-based; conditions: MCF7 overexpressing tagGFP-tagged ATAD2, gated by tagGFP; mean ± SEM, n = 3 independent experiments
Protocol: informed consent was obtained (Indivumed, Hamburg, by incubating cells with primary antibodies for 1 h at Germany; Asterand, Detroit USA; Provitro Berlin, RT followed by labelling with secondary antibodies Germany) of different indications. Immunohistochemistry conjugated with Alexa488 or Alexa647 for 30 min at was performed using EnVision System-HRP (DAB) from RT in dark. For analysis of TagGFP-ATAD2 expressing Dako (K4006 and K4010). Prior to immunostaining the cells GFP was stained by GFP antibody to enhance the slides were deparaffinized and rehydrated in xylene and fluorescence signal. DNA was stained by DAPI at 1 μg/ graded ethanol to distilled water. Antigen was retrieved by ml for 10 min at RT. For EdU (5-ethynyl-2'-deoxyuridine) incubating the tissue in boiling Target Retrieval Solution labelling cells were incubated in 10 μM EdU for 2h at 37 pH 6.0 (Dako S2031) for 40 min and letting them cool °C prior to fixation and staining was carried out according […]
Peroxidase-Block for 15 min at RT the slides were washed Fluor® 647 Flow Cytometry Assay Kit, ThermoFisher). twice in washing buffer (PBS with 0.05 % Tween 20) and Cells were analyzed by flow cytometry using a BD LSR incubated with primary antibodies in Antibody-Diluent II. All imaging and quantifications were performed using […]
(Dako S2022) for 90 min at RT. […]
Immunofluorescence of cells were saved for whole cell extract and the rest was subjected for subsequent fractionation. Whole cell extract […]
and fixed in 2 % FA for 10 min at RT. […] The image series were imported in Fiji and 100 % MeOH for 10 min at – 20 °C and incubated in average fluorescence was in the bleached region (F(t)ROI), […]

MCF7 cells [2] = test: Fluorescence recovery after photobleaching (FRAP); format: cell-based; conditions: TagGFP-tagged ATAD2 in MCF7, FRAP, 20 images; mean ± SEM
Protocol: Immunofluorescence of cells were saved for whole cell extract and the rest was subjected for subsequent fractionation. Whole cell extract
Cells were grown on Matrigel-coated coverslips and was prepared by incubating cells in ice-cold RIPA buffer fixed in 4 % formaldehyde in PBS for 15 min at RT or in (25 mM Tris·HCl pH 7.6, 150 mM NaCl, 1 % NP-40, 1 100 % methanol for 7 min at -20 °C. After removing the % sodium deoxycholate, 0.1 % SDS) supplemented with residual FA or methanol by washing in PBS cells were protease inhibitor cocktail (Roche) for 10 min on ice and permeabilized in blocking solution (10 % goat serum sonicated at medium power, 0.5 intervals in BIORUPTOR and 0.3 % Triton X-100 in PBS) for 10 min at RT and for 3 min at 4 °C. Soluble lysate was recovered by incubated with primary antibodies in blocking solution. removing insoluble fractions after centrifugation at 20000 Following the removal of unbound antibodies by washing x g for 10 min 5 to 20 μg of lysates were used for SDS gel in PBS cells were incubated with secondary antibodies electrophoresis and Western blot. conjugated with Alexa Fluor 488, 555 or 647 (Invitrogen), washed and mounted on slides in presence of DAPI for Fluorescence recovery after photobleaching visualization of nucleus. Images were acquired using an (FRAP) inverted Zeiss LSM700 confocal microscope using a 488 nm Diode-Pumped Solid State Laser with a 63X, 1.3 N.A. FRAP experiment was performed as previously oil-immersion objective. For EdU labelling cells were described with minor modifications. […]
and fixed in 2 % FA for 10 min at RT. […] The image series were imported in Fiji and 100 % MeOH for 10 min at – 20 °C and incubated in average fluorescence was in the bleached region (F(t)ROI), stain buffer with 5 % normal goat serum for 10 min at the total cell nucleus (F(t)total) and a background (F(t)BG) RT for blocking. Then indirect staining was performed were determined. The relative fluorescence intensity

[3] = tested on: HDAC1 binding to H4K5,12diac; test: In vitro competition with HDAC1 for immobilized H4K5,12diac peptides (direct binding pull down); conditions: increasing amount of ATAD2^342-1390 2 h, then 0.1 μM recombinant HDAC1 2 h; 1 μM immobilized peptide
Protocol: H4 peptides (1-25) conjugated with Biotin was immobilized on Streptavidin-coupled Dynabeads for 2 hours at 4 °C and incubated with nuclear extract from MCF7 cells. Nuclear extract was prepared by first isolating nucleus in hypotonic buffer (10 mM Tris-HCl pH 8.5, 10 mM NaCl, 0.5 mM TCEP and 0.1 % NP-40) and disrupting nuclear envelop in high salt buffer (20 mM Tris-HCl pH 8.5, 420 mM NaCl, 0.5 mM TCEP, 0.1 % Triton X-100, 25 % Glycerol) for 2 hours at 4 °C. Soluble nuclear extract was harvested by centrifugation at 20000 g for 20 min and diluted to 1:3 in buffer without NaCl in order to achieve physiological salt concentration, 140 mM. The nuclear extract was incubated with the immobilized peptides on the Streptavidin-Dynabeads overnight at 4 °C. Next day, the beads were washed three times with washing buffer (20 mM Tris-HCl pH 8.5, 140 mM NaCl, 0.5 mM TCEP, 0.1 % Triton X-100, 25 % Glycerol) and twice with high salt buffer. Bound proteins were recovered by boiling the beads in 1X sample buffer for 5 min. at 95 °C and analyzed by SDS-PAGE and Western Blotting. For direct binding experiments 1 μM of immobilized histone peptides on Streptavidin-Dynabeads were incubated with indicated amounts of ligands for 2 hours at 4 °C. After stringent washing as described above, bound proteins were analyzed in Western Blotting.

B1: BD mut: TagGFP-tagged BD mutant ATAD2 (V1013A, Y1021A, Y1063A, I1074A) expressed in MCF7 cells (protein, UniProt Q6PL18 1-1390, looked up, variant V1013A Y1021A Y1063A I1074A)
ATPase family AAA …: MVVLRSSLELHNHSAASATGSLDLSSDFLSLEHIGRRRLRSAGAAQKKPAATTAKAGDGSSVKEVETYHRTRALRSLRKDAQNSSDSSFEKNVEITEQLANGRHFTRQLARQQADKKKEEHREDKVIPVTRSLRARNIVQSTEHLHEDNGDVEVRRSCRIRSRYSGVNQSMLFDKLITNTAEAVLQKMDDMKKMRRQRMRELEDLGVFNETEESNLNMYTRGKQKDIQRTDEETTDNQEGSVESSEEGEDQEHEDDGEDEDDEDDDDDDDDDDDDDDEDDEDEEDGEEENQKRYYLRQRKATVYYQAPLEKPRHQRKPNIFYSGPASPARPRYRLSSAGPRSPYCKRMNRRRHAIHSSDSTSSSSSEDEQHFERRRKRSRNRAINRCLPLNFRKDELKGIYKDRMKIGASLADVDPMQLDSSVRFDSVGGLSNHIAALKEMVVFPLLYPEVFEKFKIQPPRGCLFYGPPGTGKTLVARALANECSQGDKRVAFFMRKGADCLSKWVGESERQLRLLFDQAYQMRPSIIFFDEIDGLAPVRSSRQDQIHSSIVSTLLALMDGLDSRGEIVVIGATNRLDSIDPALRRPGRFDREFLFSLPDKEARKEILKIHTRDWNPKPLDTFLEELAENCVGYCGADIKSICAEAALCALRRRYPQIYTTSEKLQLDLSSINISAKDFEVAMQKMIPASQRAVTSPGQALSTVVKPLLQNTVDKILEALQRVFPHAEFRTNKTLDSDISCPLLESDLAYSDDDVPSVYENGLSQKSSHKAKDNFNFLHLNRNACYQPMSFRPRILIVGEPGFGQGSHLAPAVIHALEKFTVYTLDIPVLFGVSTTSPEETCAQVIREAKRTAPSIVYVPHIHVWWEIVGPTLKATFTTLLQNIPSFAPVLLLATSDKPHSALPEEVQELFIRDYGEIFNVQLPDKEERTKFFEDLILKQAAKPPISKKKAVLQALEVLPVAPPPEPRSLTAEEVKRLEEQEEDTFRELRIFLRNVTHRLAIDKRFRVFTKPADPDEVPDAVTVIKQPMDLSSVISKIDLHKYLTVKDYLRDIDLICSNALEANPDRDPGDRLARHRACALRDTAYAIIKEELDEDFEQLCEEIQESRKKRGCSSSKYAPSYYHVMPKQNSTLVGDKRSDPEQNEKLKTPSTPVACSTPAQLKRKIRKKSNWYLGTIKKRRKISQAKDDSQNAIDHKIESDTEETQDTSVDHNETGNTGESSVEENEKQQNASESKLELRNNSNTCNIENELEDSRKTTACTELRDKIACNGDASSSQIIHISDENEGKEMCVLRMTRARRSQVEQQQLITVEKALAILSQPTPSLVVDHERLKNLLKTVVKKSQNYNIFQLENLYAVISQCIYRHRKDHDKTSLIQKMEQEVENFSCSR
modifications: TagGFP tag
notes: TagGFP-tagged BD mutant ATAD2 (V1013A, Y1021A, Y1063A, I1074A) expressed in MCF7 cells
- EdU incorporation (normalized to control) (MCF7 cells [1]): 0.5 ± 0.10
- half recovery time (recovery t1/2) (MCF7 cells [2]): 7.951 s

- competition with HDAC1 for binding to H4K5,12diac peptides [3]: outcompeted
B2: ATAD2^342-1390: recombinant FLAG-tagged ATAD2 residues 342 to 1390, purified from Sf9 cells (protein)
chain: SPYCKRMNRRRHAIHSSDSTSSSSSEDEQHFERRRKRSRNRAINRCLPLNFRKDELKGIYKDRMKIGASLADVDPMQLDSSVRFDSVGGLSNHIAALKEMVVFPLLYPEVFEKFKIQPPRGCLFYGPPGTGKTLVARALANECSQGDKRVAFFMRKGADCLSKWVGESERQLRLLFDQAYQMRPSIIFFDEIDGLAPVRSSRQDQIHSSIVSTLLALMDGLDSRGEIVVIGATNRLDSIDPALRRPGRFDREFLFSLPDKEARKEILKIHTRDWNPKPLDTFLEELAENCVGYCGADIKSICAEAALCALRRRYPQIYTTSEKLQLDLSSINISAKDFEVAMQKMIPASQRAVTSPGQALSTVVKPLLQNTVDKILEALQRVFPHAEFRTNKTLDSDISCPLLESDLAYSDDDVPSVYENGLSQKSSHKAKDNFNFLHLNRNACYQPMSFRPRILIVGEPGFGQGSHLAPAVIHALEKFTVYTLDIPVLFGVSTTSPEETCAQVIREAKRTAPSIVYVPHIHVWWEIVGPTLKATFTTLLQNIPSFAPVLLLATSDKPHSALPEEVQELFIRDYGEIFNVQLPDKEERTKFFEDLILKQAAKPPISKKKAVLQALEVLPVAPPPEPRSLTAEEVKRLEEQEEDTFRELRIFLRNVTHRLAIDKRFRVFTKPVDPDEVPDYVTVIKQPMDLSSVISKIDLHKYLTVKDYLRDIDLICSNALEYNPDRDPGDRLIRHRACALRDTAYAIIKEELDEDFEQLCEEIQESRKKRGCSSSKYAPSYYHVMPKQNSTLVGDKRSDPEQNEKLKTPSTPVACSTPAQLKRKIRKKSNWYLGTIKKRRKISQAKDDSQNAIDHKIESDTEETQDTSVDHNETGNTGESSVEENEKQQNASESKLELRNNSNTCNIENELEDSRKTTACTELRDKIACNGDASSSQIIHISDENEGKEMCVLRMTRARRSQVEQQQLITVEKALAILSQPTPSLVVDHERLKNLLKTVVKKSQNYNIFQLENLYAVISQCIYRHRKDHDKTSLIQKMEQEVENFSCSR
